Reference: IntAct's records for PubMed 23686307

Target: tf65_human RELA (UniProt Q04206)

Row | effect of a mutation on the interaction | Substance
1 | decreasing interaction | Bromodomain-containing protein 4 (Homo sapiens) (from UniProt O60885) Y139A;N140A
2 | disrupting interaction | Bromodomain-containing protein 4 (Homo sapiens) (from UniProt O60885) Y139A;N140A;Y432A;N433A
3 | decreasing interaction | Bromodomain-containing protein 4 (Homo sapiens) (from UniProt O60885) Y432A;N433A
